Among the data in patent US20040132130 are Km value, OMGnT activity (pmol/hr/mg protein) (pmol/hr/mg protein) and OMGnT relative activity (%) values, retold here.

For the data set, the target named is T1, Ac-Ala-Ala-Pro-Thr(Man)-Pro-Val-Ala-Ala-Pro-NH2.
T1 chain: AAPTPVAAP

B1: His-Xpress-sOMGnT(S) (protein)
chain: SSAEEAECHWADTELNRRRRRFCSKVEGYGSVCSCKDPTPIEFSPDPLPDNKVLNVPVAVIAGNRPNYLYRMLRSLLSAQGVSPQMITVFIDGYYEEPMDVVALFGLRGIQHTPISIKNARVSQHYKASLTATFNLFPEAKFAVVLEEDLDIAVDFFSFLSQSIHLLEEDDSLYCISAWNDQGYEHTAEDPALLYRVETMPGLGWVLRRSLYKEELEPKWPTPEKLWDWDMWMRMPEQRRGRECIIPDVSRSYHFGIVGLNMNGYFHEAYFKKHKFNTVPGVQLRNVDSLKKEAYEVEVHRLLSEAEVLDHSKNPCEDSFLPDTEGHTYVAFIRMEKDDDFTTWTQLAKCLHIWDLDVRGNHRGLWRLFRKKNHFLVVGVPASPYSVKKPPSVTPIFLEPPPKEEGAPGAPEQT
For the protein B1, the Km value stood at 1360 µM, the OMGnT activity (pmol/hr/mg protein) (pmol/hr/mg protein) was determined as 20 and the OMGnT relative activity (%) turned out to be 100%.

B2: His-Xpress-sGnT-I (protein)
chain: SVSALDGDPASLTREVIRLAQDAEVELERQRGLLQQIGDALSSQRGRVPTAAPPAQPRVPVTPAPAVIPILVIACDRSTVRRCLDKLLHYRPSAELFPIIVSQDCGHEETAQAIASYGSAVTHIRQPDLSSIAVPPDHRKFQGYYKIARHYRWALGQVFRQFRFPAAVVVEDDLEVAPDFFEYFRATYPLLKADPSLWCVSAWNDNGKEQMVDASRPELLYRTDFFPGLGWLLLAELWAELEPKWPKAFWDDWMRRPEQRQGRACIRPEISRTMTFGRKGVSHGQFFDQHLKFIKLNQQFVHFTQLDLSYLQREAYDRDFLARVYGAPQLQVEKVRTNDRKELGEVRVQYTGRDSFKAFAKALGVMDDLKSGVPRAGYRGIVTFQFRGRRVHLAPPLTWEGYDPSWN
Turning to B2, the OMGnT activity (pmol/hr/mg protein) (pmol/hr/mg protein) turned out to be 0.4.
